Paper PMC4514675, “Novel Apo E-Derived ABCA1 Agonist Peptide (CS-6253) Promotes Reverse Cholesterol Transport and Induces Formation of preβ-1 HDL In Vitro” (PLoS ONE, 2015)

Target: T1, human ABCG1 (Homo sapiens, UniProt P45844)
T1 construct: expressed in transfected cells; host or cells: BHK cells, stably transfected, induced with 10 nmol/l mifepristone
Test: ABCG1-mediated cholesterol efflux from BHK-ABCG1 cells
Type: cell-based
Description: Supplementary file pone.0131997.s009.tif: S8 Fig In-vitro time-dependent ABCG1-mediated cholesterol efflux activity to nHDL-CS-6253 particles generated by BHK cells expressing ABCA1. Unlabeled BHK cells expressing ABCA1 were treated with 0.96 μM lipid free apo A-I or CS-6253 for 18 h as described in experimental procedures in the online-only Supplementary appendix, S1 Appendix. Then the medium was collected and added to 3[H]cholesterol-labeled ABCG1 expressing cells in a time-dependent fashion (0–6h), and assayed for cholesterol efflux (only 6h time point is shown). (TIF) Click here for additional data file.
Supplementary file pone.0131997.s010.tif: S9 Fig In-vitro ABCG1-mediated cholesterol efflux activity to lipid free CS-6253 and nHDL-CS-6253 particles generated by BHK cells expressing ABCA1. Unlabeled ABCA1 expressing cells were treated with increasing concentrations of apo A-I or CS-6253 for 18 h. The medium from unlabeled ABCA1 cells treated as described in experimental procedures, centrifuged to remove cellular debris, added to ^3[H]cholesterol-BHK ABCG1 expressing cells for 6 h, and assayed for efflux as described in the online-only Supplementary appendix, S1 Appendix. Lipid free peptide and apo A-I are also tested against ABCG1 expressing cells for 6h cholesterol efflux. (We selected 1 μM nHDL mimetic or nHDL-apo A-I or lipid free peptide and apo A-I for the figure). […] Efflux of ^3[H]cholesterol is shown as means ± SD of triplicate experiments. (TIF) Click here for additional data file.
All cell culture incubations were performed at 37 °C in a humidified 5% CO2. Cells (J774, or BHK overexpressing human ABCG1) were labeled with 2 μCi/ml ^3H-free cholesterol (Perkin Elmer, Norwalk, Connecticut) for 24 h. Simultaneously J774 cells were incubated with 2 μg/ml ACAT inhibitor (Sandoz, Sigma, Oakville, Canada). Afterward, J774 and BHK-ABCG1 were stimulated with 0.5 mmol/l (cpt-cAMP) (2) or 10 nmol/l mifepristone for 18-20 h, respectively (1). Cells were incubated with various doses of acceptor in media for 6 h for J774 macrophages and BHK-ABCG1 cells. Media were collected, centrifuged at 3.000 g for 5min to remove cell debris, and counted for radioactivity. Cells were lysed in 0.5 ml of (0.1N) NaOH overnight with constant shaking. Further, 0.2 ml cells lysates were mixed with scintillation liquid and counted for radioactivity. Efflux from stimulated cells without acceptor was subtracted from total efflux to determine net efflux. Cholesterol efflux was calculated according to the following formula as the percentage of ^3H-cpm medium/(^3H-cpm medium + ^3H-cpm cells) x 100%. Efflux efficiency (Km) was calculated using the Michaelis-Menten equation (Graph-Pad Prism6 software) respectively (S1, S8 and S9 Figs.)

[1] = BHK-ABCG1, 6 h, mean ± SD, triplicate

apolipoprotein A-I [apo A-I]
Km [1]: 0.06 ± 0.01 µM | Km, ABCG1-mediated cholesterol efflux [1]: 1.7 ± 0.50 µg/mL | Vmax, ABCG1-mediated cholesterol efflux (BHK-ABCG1, mean ± SD, triplicate): 0.96 ± 0.01 % efflux/6h | maximum net ABCG1 cholesterol efflux above base line (lipid free, BHK-ABCG1, 6 h): 1%
